Each block holds one binder with its values, some of them ahead of it.
Target: C3 convertase complex (UniProt P01024 23-1663; P00751 260-764)
Experiment: cell-based or functional assay
Throughout, for C3 convertase activity % of the control: test concentration or dose not given here.

Chain of C3 convertase complex (P01024 23-1663, chain 1 of 2): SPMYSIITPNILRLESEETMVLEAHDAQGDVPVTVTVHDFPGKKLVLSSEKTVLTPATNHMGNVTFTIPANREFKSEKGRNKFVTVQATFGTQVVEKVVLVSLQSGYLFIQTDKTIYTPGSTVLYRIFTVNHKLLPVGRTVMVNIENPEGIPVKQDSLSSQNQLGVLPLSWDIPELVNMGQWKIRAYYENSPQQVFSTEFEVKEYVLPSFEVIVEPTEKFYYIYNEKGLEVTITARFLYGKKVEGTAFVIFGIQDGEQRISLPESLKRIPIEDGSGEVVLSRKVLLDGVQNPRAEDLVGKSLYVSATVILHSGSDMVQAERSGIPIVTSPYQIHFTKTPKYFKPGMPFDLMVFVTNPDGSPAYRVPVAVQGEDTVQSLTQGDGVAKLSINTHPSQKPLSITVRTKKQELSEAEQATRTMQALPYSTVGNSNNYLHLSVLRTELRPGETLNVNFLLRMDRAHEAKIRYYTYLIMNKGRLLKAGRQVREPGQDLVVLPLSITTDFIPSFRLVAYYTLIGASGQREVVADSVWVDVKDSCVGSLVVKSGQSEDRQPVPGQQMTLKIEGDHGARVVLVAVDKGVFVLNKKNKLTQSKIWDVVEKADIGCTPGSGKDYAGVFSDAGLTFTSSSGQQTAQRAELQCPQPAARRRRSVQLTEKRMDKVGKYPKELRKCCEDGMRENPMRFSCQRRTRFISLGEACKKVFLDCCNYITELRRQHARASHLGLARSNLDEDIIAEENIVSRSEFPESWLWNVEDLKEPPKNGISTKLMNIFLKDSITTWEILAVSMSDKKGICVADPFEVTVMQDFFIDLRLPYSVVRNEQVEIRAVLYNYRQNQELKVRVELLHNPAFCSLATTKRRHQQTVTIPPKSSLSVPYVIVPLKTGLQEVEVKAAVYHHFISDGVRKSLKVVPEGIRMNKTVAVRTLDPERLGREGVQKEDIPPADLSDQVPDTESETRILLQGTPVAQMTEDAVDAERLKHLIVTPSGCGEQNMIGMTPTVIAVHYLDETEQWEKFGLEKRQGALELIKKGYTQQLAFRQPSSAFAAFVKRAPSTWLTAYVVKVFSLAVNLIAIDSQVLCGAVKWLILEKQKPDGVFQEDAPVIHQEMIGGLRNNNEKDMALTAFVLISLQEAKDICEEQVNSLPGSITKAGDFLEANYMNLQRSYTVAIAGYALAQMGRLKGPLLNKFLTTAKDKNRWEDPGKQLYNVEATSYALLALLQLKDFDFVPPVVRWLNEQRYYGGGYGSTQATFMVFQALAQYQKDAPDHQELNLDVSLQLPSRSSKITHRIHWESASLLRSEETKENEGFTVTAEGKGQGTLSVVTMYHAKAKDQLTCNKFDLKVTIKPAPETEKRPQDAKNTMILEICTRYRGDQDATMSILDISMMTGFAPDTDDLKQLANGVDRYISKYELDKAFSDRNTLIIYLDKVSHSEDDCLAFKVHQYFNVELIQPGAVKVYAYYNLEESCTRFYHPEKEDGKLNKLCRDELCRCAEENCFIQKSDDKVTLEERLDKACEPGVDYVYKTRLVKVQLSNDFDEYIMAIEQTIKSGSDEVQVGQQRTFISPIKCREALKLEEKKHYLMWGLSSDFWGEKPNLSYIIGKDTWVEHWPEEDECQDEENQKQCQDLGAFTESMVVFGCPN
Chain of C3 convertase complex (P00751 260-764, chain 2 of 2): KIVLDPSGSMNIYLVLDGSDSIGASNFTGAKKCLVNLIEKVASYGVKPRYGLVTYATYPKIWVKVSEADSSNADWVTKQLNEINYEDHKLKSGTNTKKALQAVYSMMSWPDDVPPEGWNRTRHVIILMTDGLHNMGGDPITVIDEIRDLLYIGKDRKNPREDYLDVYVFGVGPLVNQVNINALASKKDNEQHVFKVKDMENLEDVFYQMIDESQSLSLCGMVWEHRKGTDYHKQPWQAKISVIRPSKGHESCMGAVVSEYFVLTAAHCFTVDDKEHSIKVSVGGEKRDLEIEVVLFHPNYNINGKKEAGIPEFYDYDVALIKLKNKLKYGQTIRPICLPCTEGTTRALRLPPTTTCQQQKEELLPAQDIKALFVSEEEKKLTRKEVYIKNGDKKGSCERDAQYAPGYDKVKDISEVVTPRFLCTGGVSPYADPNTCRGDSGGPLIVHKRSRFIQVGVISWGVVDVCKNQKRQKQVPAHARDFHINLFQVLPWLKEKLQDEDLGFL

C3 convertase activity % of the control: 64 % of the control
C3 convertase activity IC50: 0.552 mg/L
B1: pCEP4-1NT9-10CT20 (other)
chain: EDCNELPPRRNTEILTGSWSDQTYPEGTQAIYKCRPGYRSLGNVIMVCRKGEWVALNPLRKCQKRPCGHPGDTPFGTFTLTGGNVFEYGVKAVYTCNEGYQLLGEINYRECDTDGWTNDIPICEVVKCLPVTAPENGKIVSSAMEPDREYHFGQAVRFVCNSGYKIEGDEEMHCSDDGFWSKEKPKCVEISCKSPDVINGSPISQKIIYKENERFQYKCNMGYEYSERGDAVCTESGWRPLPSCEEKSCDNPYIPNGDYSPLRIKHRTGDEITYQCRNGFYPATRGNTAKCTSTGWIPAPRCTLKPCDYPDIKHGGLYHENMRRPYFPVAVGKYYSYYCDEHFETPSGSYWDHIHCTQDGWSPAVPCLRKCYFPYLENGYNQNYGRKFVQGKSIDVACHPGYALPKAQTTVTCMENGWSPTPRCIRVKTCSKSSIDIENGFISESQYTYALKEKAKYQCKLGYVTADGETSGSITCGKDGWSAQPTCIKSCDIPVFMNARTKNDFTWFKLNDTLDYECHDGYESNTGSTTGSIVCGYNGWSDLPICYEREGASGCELPKIDVHLVPDRKKDQYKVGEVLKFSCKPGFTIVGPNSVQCYHFGLSPDLPICKEQVQSCGPPPELLNGNVKEKTKEEYGHSEVVEYYCNPRFLMKGPNKIQCVDGEWTTLPVCIVEESTCGDIPELEHGWAQLSSPPYYYGDSVEFNCSESFTMIGHRSITCIHGVWTQLPQCVAIDKLKKCKSSNLIILEEHLKNKKEFDHNSNIRYRCRGKEGWIHTVCINGRWDPEVNCSMAQIQLCPPPPQIPNSHNMTTTLNYRDGEKVSVLCQENYLIQEGEEITCKDGRWQSIPLCVEKIPCSQPPQIEHGTINSSRSSQESYAHGTKLSYTCEGGFRISEENETTCYMGKWSSPPQCEGLPCKSPPEISHGVVAHMSDSYQYGEEVTYKCFEGFGIDGPAIAKCLGEKWSHPPSCIKTDCLSLPSFENAIPMGEKKDVYKAGEQVTYTCATYYKMDGASNVTCINSRWTGRPTCRDTSCVNPPTVQNAYIVSRQMSKYPSGERVRYQCRSPYEMFGDEEVMCLNGNWTEPPQCKDSTGKCGPPPPIDNGDITSFPLSVYAPASSVEYQCQNLYQLEGNKRITCRNGQWSEPPKCLHPCVISREIMENYNIALRWTAKQKLYSRTGESVEFVCKRGYRLSSRSHTLRTTCWDGKLEYPTCAKRGGSGHHHHHH

C3 convertase activity % of the control: 64 % of the control
C3 convertase activity IC50: 0.57 mg/L
B2: pCEP4-1NT9-14CT20 (other)
chain: EDCNELPPRRNTEILTGSWSDQTYPEGTQAIYKCRPGYRSLGNVIMVCRKGEWVALNPLRKCQKRPCGHPGDTPFGTFTLTGGNVFEYGVKAVYTCNEGYQLLGEINYRECDTDGWTNDIPICEVVKCLPVTAPENGKIVSSAMEPDREYHFGQAVRFVCNSGYKIEGDEEMHCSDDGFWSKEKPKCVEISCKSPDVINGSPISQKIIYKENERFQYKCNMGYEYSERGDAVCTESGWRPLPSCEEKSCDNPYIPNGDYSPLRIKHRTGDEITYQCRNGFYPATRGNTAKCTSTGWIPAPRCTLKPCDYPDIKHGGLYHENMRRPYFPVAVGKYYSYYCDEHFETPSGSYWDHIHCTQDGWSPAVPCLRKCYFPYLENGYNQNYGRKFVQGKSIDVACHPGYALPKAQTTVTCMENGWSPTPRCIRVKTCSKSSIDIENGFISESQYTYALKEKAKYQCKLGYVTADGETSGSITCGKDGWSAQPTCIKSCDIPVFMNARTKNDFTWFKLNDTLDYECHDGYESNTGSTTGSIVCGYNGWSDLPICYEREGASGCPPPPQIPNSHNMTTTLNYRDGEKVSVLCQENYLIQEGEEITCKDGRWQSIPLCVEKIPCSQPPQIEHGTINSSRSSQESYAHGTKLSYTCEGGFRISEENETTCYMGKWSSPPQCEGLPCKSPPEISHGVVAHMSDSYQYGEEVTYKCFEGFGIDGPAIAKCLGEKWSHPPSCIKTDCLSLPSFENAIPMGEKKDVYKAGEQVTYTCATYYKMDGASNVTCINSRWTGRPTCRDTSCVNPPTVQNAYIVSRQMSKYPSGERVRYQCRSPYEMFGDEEVMCLNGNWTEPPQCKDSTGKCGPPPPIDNGDITSFPLSVYAPASSVEYQCQNLYQLEGNKRITCRNGQWSEPPKCLHPCVISREIMENYNIALRWTAKQKLYSRTGESVEFVCKRGYRLSSRSHTLRTTCWDGKLEYPTCAKRGGSGHHHHHH

— patent US20170190753A1 (LABORATOIRE FRANCAIS DU FRACTIONNEMENT ET DES …, published 2017)
